Two variants from IntAct's records for PubMed 31481669 can be followed below.

First the molecules themselves.
B1: EKC/KEOPS complex subunit LAGE3 (Homo sapiens), Q14657 (parent)
chain: MRDADADAGGGADGGDGRGGHSCRGGVDTAAAPAGGAPPAHAPGPGRDAASAARGSRMRPHIFTLSVPFPTPLEAEIAHGSLAPDAEPHQRVVGKDLTVSGRILVVRWKAEDCRLLRISVINFLDQLSLVVRTMQRFGPPVSR
partner: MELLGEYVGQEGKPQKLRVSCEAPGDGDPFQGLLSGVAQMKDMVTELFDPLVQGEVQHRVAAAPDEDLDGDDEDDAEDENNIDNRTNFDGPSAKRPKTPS

In this assay the parent is B1. As to conditions: with gon7_human GON7, Q9BXV9.
Regarding MRDADADAGGGADGGDGRGGHSCRGGVDTAAAPAGGAPPAHAPGPGRDAASAARGSRMRPHIFTLSVPFPTPLEAEIAHGSLAPDAEPHQRVVGKDLTVSGRILVVRWKAEDCRLLRISVINFLDQLSLVVRTMQRSGPPVSR [F137S], the “effect of a mutation on the interaction” value was “with no effect”. The entry for MRDADADAGGGADGGDGRGGHSCRGGVDTAAAPAGGAPPAHAPGPGRDAASAARGSRMRPHIFTLSVPFPTPLEAEIAHGSLAPDAEPHQRVVGKDLTVSGRILVFRWKAEDCRLLRISVINFLDQLSLVVRTMQRFGPPVSR [V106F] is “with no effect”.
